Data published in patent publication US20100266586A1.

B1: RHD5 (human monoclonal antibody from the lymphoblastoid cell line RHD5) (antibody, V domains shown)
VH: QVQLVQSGAEVKKPGSSVMVSCKASGGTFSSFGISWVRQAPGQGLEWVGGIIPIFGTANTARNFQNRVTITADEFTSTAYIRLRSLRSEDTAVYYCVGGRDAYSFDGFDVWGQGTMVTVSSASTKGPSVFP
VL: SSGLTQPHSVSVSPGQTANITCSRDKLGHKFASWYQQKPGQSPALLIYQDSKRPSGIPERFSGSNSGNTATLTISGTQAMDEADYYCQAWDNTTAVFGGGTKLTVLSQPKAAPSVTLFPPS
B2: Krix-1 (human monoclonal antibody KRIX-1 produced in a human lymphoblastoid cell line, native glycosylation) (antibody, human IgG4, V domains shown)
VH: QVQLVQSGAEVKKPGASVKVSCKTSGYNFTGYSASGHIFTAYSVHWVRQAPGQGLEWMGRINPNSGATDYAHKFQGRVTMSRDTSISTAYMELSRLTSDDTAMYYCARADNYFDIVTGYTSHYFDYWGRGTLVTVSSASTKGPSVF
VL: EIVLTQSPGTLSLSPGERATLSCRASQSVASAYLAWYQQKPGQAPRLLIYGASSRATDIPHRFSGSGSGTDFTLTISRLEPEDFAVYYCQQYGTSALLTFGGGTKVEIKRTVAAPSVFIFPPS
modifications: here or on the partner: N-linked glycosylation site at Asn47-Thr49, native glycan as made by the lymphoblastoid cell line
B3: deglycosylated KRIX-1 (Krix-1 treated with N-glycosidase-F) (antibody, IgG4, V domains shown)
VH: B2 VH
VL: B2 VL
modifications: here or on the partner: N-linked glycan removed by N-glycosidase-F (2 U/ml, 72 h, 37 C)

Key:
[1] = target: FVIII in a pool of normal human plasma (human), P00451; assay: cell-based or functional assay
[2] = target: full length recombinant FVIII (Recombinate, Baxter), P00451; assay: cell-based or functional assay
full length recombinant FVIII (Recombinate, Baxter), P00451, sequence (P00451 20-2351): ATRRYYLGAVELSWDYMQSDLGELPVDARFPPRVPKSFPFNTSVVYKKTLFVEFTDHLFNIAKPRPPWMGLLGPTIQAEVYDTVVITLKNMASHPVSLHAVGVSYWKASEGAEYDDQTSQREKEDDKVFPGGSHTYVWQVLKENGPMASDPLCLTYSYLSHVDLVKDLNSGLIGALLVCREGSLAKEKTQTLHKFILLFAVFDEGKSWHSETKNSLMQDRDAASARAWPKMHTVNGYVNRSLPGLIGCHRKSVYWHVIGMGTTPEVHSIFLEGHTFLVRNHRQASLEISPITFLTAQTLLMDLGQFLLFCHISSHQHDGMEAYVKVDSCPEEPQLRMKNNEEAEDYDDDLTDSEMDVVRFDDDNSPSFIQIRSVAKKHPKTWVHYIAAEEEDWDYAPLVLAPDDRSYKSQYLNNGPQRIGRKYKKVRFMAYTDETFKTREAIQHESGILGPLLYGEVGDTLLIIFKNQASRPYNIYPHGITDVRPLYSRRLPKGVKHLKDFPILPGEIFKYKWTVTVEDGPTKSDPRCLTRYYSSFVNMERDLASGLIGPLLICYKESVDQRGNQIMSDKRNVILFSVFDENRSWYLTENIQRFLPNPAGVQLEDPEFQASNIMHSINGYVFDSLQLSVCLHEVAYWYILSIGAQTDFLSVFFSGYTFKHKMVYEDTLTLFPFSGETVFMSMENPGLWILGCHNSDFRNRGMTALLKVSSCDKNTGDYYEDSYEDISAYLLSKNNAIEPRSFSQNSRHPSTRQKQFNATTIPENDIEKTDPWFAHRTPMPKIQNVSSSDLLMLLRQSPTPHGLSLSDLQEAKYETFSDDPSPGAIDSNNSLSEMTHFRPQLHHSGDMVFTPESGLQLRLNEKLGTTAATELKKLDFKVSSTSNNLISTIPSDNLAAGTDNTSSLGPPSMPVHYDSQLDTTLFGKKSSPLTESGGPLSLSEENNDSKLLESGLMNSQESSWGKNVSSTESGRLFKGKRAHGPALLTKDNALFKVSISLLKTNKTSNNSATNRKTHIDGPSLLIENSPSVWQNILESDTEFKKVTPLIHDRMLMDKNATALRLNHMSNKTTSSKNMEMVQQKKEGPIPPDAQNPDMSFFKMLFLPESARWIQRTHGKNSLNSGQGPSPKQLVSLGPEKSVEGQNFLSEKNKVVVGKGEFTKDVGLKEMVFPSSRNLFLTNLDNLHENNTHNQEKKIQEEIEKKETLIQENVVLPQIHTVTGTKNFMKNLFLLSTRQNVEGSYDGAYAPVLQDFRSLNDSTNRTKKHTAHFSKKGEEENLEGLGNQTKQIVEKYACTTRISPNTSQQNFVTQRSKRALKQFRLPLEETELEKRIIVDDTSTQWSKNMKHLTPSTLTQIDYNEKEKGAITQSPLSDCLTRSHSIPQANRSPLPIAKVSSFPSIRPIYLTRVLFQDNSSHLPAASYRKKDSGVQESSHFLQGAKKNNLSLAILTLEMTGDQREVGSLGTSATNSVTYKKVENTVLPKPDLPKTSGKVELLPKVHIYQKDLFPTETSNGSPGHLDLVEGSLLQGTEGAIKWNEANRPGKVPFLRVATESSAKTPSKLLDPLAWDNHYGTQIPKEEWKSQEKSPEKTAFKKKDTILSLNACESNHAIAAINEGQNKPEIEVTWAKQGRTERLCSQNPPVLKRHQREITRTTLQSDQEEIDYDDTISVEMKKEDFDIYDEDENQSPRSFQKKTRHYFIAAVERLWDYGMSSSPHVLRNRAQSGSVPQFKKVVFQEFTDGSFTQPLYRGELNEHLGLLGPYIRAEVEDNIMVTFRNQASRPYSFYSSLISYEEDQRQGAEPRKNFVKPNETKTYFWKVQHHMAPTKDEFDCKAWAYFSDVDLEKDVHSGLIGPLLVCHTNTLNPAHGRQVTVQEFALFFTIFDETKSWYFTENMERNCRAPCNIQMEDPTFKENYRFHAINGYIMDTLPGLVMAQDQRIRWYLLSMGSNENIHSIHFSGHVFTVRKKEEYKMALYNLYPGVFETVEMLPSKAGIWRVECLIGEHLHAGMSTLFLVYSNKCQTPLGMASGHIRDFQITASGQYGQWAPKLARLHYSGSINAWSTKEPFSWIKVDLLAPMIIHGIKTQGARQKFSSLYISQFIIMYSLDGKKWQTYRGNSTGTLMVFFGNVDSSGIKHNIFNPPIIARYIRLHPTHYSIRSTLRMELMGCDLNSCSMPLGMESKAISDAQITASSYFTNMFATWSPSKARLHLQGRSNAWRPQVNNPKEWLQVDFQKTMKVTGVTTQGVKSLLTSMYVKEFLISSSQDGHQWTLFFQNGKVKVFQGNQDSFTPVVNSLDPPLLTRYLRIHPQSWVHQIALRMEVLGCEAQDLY

FVIII in a pool of normal human plasma (human), P00451, sequence (P00451 20-2351): as above

Row | Binder | inhibition of FVIII activity at a final concentration of RHD5 of 100 microgram/ml (Bethesda assay, plasma) [1] | inhibition of FVIII activity at a final concentration of RHD5 of 100 microgram/ml (Bethesda assay, full length recombinant FVIII) [2] | inhibition of FVIII activity (chromogenic assay, normal human plasma) [1] | maximal inhibition of FVIII activity (Bethesda assay, chromogenic FVIII assay) [1] | maximal inhibition (plateau inhibition) of FVIII activity (Bethesda assay, chromogenic FVIII assay) [1]
1 | B1 | 97% | 98% |  |  | 
2 | B2 |  |  | 90% | 90% | 
3 | B3 |  |  | 50% |  | 50%
